Among the data in patent publication US20220135652A1 (FERRING B V, published 2022) are Kd values, retold here.

This test has as its target T1, IL-6/sIL-6R complex (human, UniProt P05231 30-212; P08887 20-355, limits assumed).
T1 construct: Complex of IL-6 and soluble IL-6R; also called IL-6/sIL-6R trans-signalling complex
The test is described as follows: method not stated; value given in Example 4 and used to calculate occupancy.

B1: Peptide 1 (the polypeptide of SEQ ID NO: 1 in its active dimerized form) (Fc fusion)
chain: ELLDPCGYISPESPVVQLHSNFTAVCVLKEKCMDYFHVNANYIVWKTNHFTIPKEQYTIINRTASSVTFTDIASLNIQLTCNILTFGQLEQNVYGITIISGLPPEKPKNLSCIVNEGKKMRCEWDGGRETHLETNFTLKSEWATHKFADCKAKRDTPTSCTVDYSTVYFVNIEVWVEAENALGKVTSDHINFDPVYKVKPNPPHNLSVINSEELSSILKLTWTNPSIKSVIILKYNIQYRTKDASTWSQIPPEDTASTRSSFTVQDLKPFTEYVFRIRCMKEDGKGYWSDWSEEASGITYEDRPSKAPSFWYKIDPSHTQGYRTVQLVWKTLPPFEANGKILDYEVTLTRWKSHLQNYTVNATKLTVNLTNDRYLATLTVRNLVGKSDAAVLTIPACDFQATHPVMDLKAFPKDNMLWVEWTTPRESVKKYILEWCVLSDKAPCITDWQQEDGTVHRTYLRGNLAESKCYLITVTPVYADGPGSPESIKAYLKQAPPSKGPTVRTKKVGKNEAVLEWDQLPVDVQNGFIRNYTIFYRTIIGNETAVNVDSSHTEYTLSSLTSDTLYMVRMAAYTDEGGKDGPEFTFTTPKFAQGEDKTHTCPPCPAPEAEGAPSVFLFPPKPKDTLMISRTPEVTCVVVDVSHEDPEVKFNWYVDGVEVHNAKTKPREEQYNSTYRVVSVLTVLHQDWLNGKEYKCKVSNKALPAPIEKTISKAKGQPREPQVYTLPPSREEMTKNQVSLTCLVKGFYPSDIAVEWESNGQPENNYKTTPPVLDSDGSFFLYSKLTVDKSRWQQGNVFSCSVMHEALHNHYTQKSLSLSPGK
notes: Produced in CHO/dhfr- cells; 10 N-glycosylation sites per chain; also called gp130-Fc fusion dimer
For B1, the Kd was 0.13 nM.
